IntAct's records for PubMed 24997597

B1: Serine/threonine-protein kinase PLK4 (Homo sapiens), O00444 (parent)
chain: MATCIGEKIEDFKVGNLLGKGSFAGVYRAESIHTGLEVAIKMIDKKAMYKAGMVQRVQNEVKIHCQLKHPSILELYNYFEDSNYVYLVLEMCHNGEMNRYLKNRVKPFSENEARHFMHQIITGMLYLHSHGILHRDLTLSNLLLTRNMNIKIADFGLATQLKMPHEKHYTLCGTPNYISPEIATRSAHGLESDVWSLGCMFYTLLIGRPPFDTDTVKNTLNKVVLADYEMPSFLSIEAKDLIHQLLRRNPADRLSLSSVLDHPFMSRNSSTKSKDLGTVEDSIDSGHATISTAITASSSTSISGSLFDKRRLLIGQPLPNKMTVFPKNKSSTDFSSSGDGNSFYTQWGNQETSNSGRGRVIQDAEERPHSRYLRRAYSSDRSGTSNSQSQAKTYTMERCHSAEMLSVSKRSGGGENEERYSPTDNNANIFNFFKEKTSSSSGSFERPDNNQALSNHLCPGKTPFPFADPTPQTETVQQWFGNLQINAHLRKTTEYDSISPNRDFQGHPDLQKDTSKNAWTDTKVKKNSDASDNAHSVKQQNTMKYMTALHSKPEIIQQECVFGSDPLSEQSKTRGMEPPWGYQNRTLRSITSPLVAHRLKPIRQKTKKAVVSILDSEEVCVELVKEYASQEYVKEVLQISSDGNTITIYYPNGGRGFPLADRPPSPTDNISRYSFDNLPEKYWRKYQYASRFVQLVRSKSPKITYFTRYAKCILMENSPGADFEVWFYDGVKIHKTEDFIQVIEKTGKSYTLKSESEVNSLKEEIKMYMDHANEGHRICLALESIISEEERKTRSAPFFPIIIGRKPGSTSSPKALSPPPSVDSNYPTRERASFNRMVMHSAASPTQAPILNPSMVTNEGLGLTTTASGTDISSNSLKDCLPKSAQLLKSVFVKNVGWATQLTSGAVWVQFNDGSQLVVQAGVSSISYTSPNGQTTRYGENEKLPDYIKQKLQCLSSILLMFSNPTPNFH
B2: Centrosomal protein of 152 kDa (Homo sapiens), O94986-3 (parent)
chain: MSLDFGSVALPVQNEDEEYDEEDYEREKELQQLLTDLPHDMLDDDLSSPELQYSDCSEDGTDGQPHHPEQLEMSWNEQMLPKSQSVNGYNEIQSLYAGEKCGNVWEENRSKTEDRHPVYHPEEGGDEGGSGYSPPSKCEQTDLYHLPENFRPYTNGQKQEFNNQATNVIKFSDPQWNHFQGPSCQGLEPYNKVTYKPYQSSAQNNGSPAQEITGSDTFEGLQQQFLGANENSAENMQIIQLQVLNKAKERQLENLIEKLNESERQIRYLNHQLVIIKDEKDGLTLSLRESQKLFQNGKEREIQLEAQIKALETQIQALKVNEEQMIKKSRTTEMALESLKQQLVDLHHSESLQRAREQHESIVMGLTKKYEEQVLSLQKNLDATVTALKEQEDICSRLKDHVKQLERNQEAIKLEKTEIINKLTRSLEESQKQCAHLLQSGSVQEVAQLQFQLQQAQKAHAMSANMNKALQEELTELKDEISLYESAAKLGIHPSDSEGELNIELTESYVDLGIKKVNWKKSKVTSIVQEEDPNEELSKDEFILKLKAEVQRLLGSNSMKRHLVSQLQNDLKDCHKKIEDLHQVKKDEKSIEVETKTDTSEKPKNQLWPESSTSDVVRDDILLLKNEIQVLQQQNQELKETEGKLRNTNQDLCNQMRQMVQDFDHDKQEAVDRCERTYQQHHEAMKTQIRESLLAKHALEKQQLFEAYERTHLQLRSELDKLNKEVTAVQECYLEVCREKDNLELTLRKTTEKEQQTQEKIKEKLIQQLEKEWQSKLDQTIKAMKKKTLDCGSQTDQVTTSDVISKKEMAIMIEEQKCTIQQNLEQEKDIAIKGAMKKLEIELELKHCENITKQVEIAVQNAHQRWLGELPELAEYQALVKAEQKKWEEQHEVSVNKRISFAVSEAKEKWKSELENMRKNILPGKELEEKIHSLQKELELKNEEVPVVIRAELAKARSEWNKEKQEEIHRIQEQNEQDYRQFLDDHRNKINEVLAAAKEDFMKQKTELLLQKETELQTCLDQSRREWTMQEAKRIQLEIYQYEEDILTVLGVLLSDTQKEHISDSEDKQLLEIMSTCSSKWMSVQYFEKLKGCIQKAFQDTLPLLVENADPEWKKRNMAELSKDSASQGTGQGDPGPAAGHHAQPLALQATEAEAEENNKVVEELIEENNDMKNKLEELQTLCKTPPRSLSAGAIENACLPCSGGALEELRGQYIKAVKKIKCDMLRYIQESKERAAEMVKAEVLRERQETARKMRKYYLICLQQILQDDGKEGAEKKIMNAASKLATMAKLLETPISSKSQSKTTQSALPLTSEMLIAVKKSKRNDVNQKIPCCIESKSNSVNTITRTLCEQAPKRRAACNLQRLLENSEHQSIKHVGSKETHLEFQFGDGSCKHLNSLPRNVSPEFVPCEGEGGFGLHKKKDLLSDNGSESLPHSAAYPFLGTLGNKPSPRCTPGPSESGCMHITFRDSNERLGLKVYKCNPLMESENAASEKSQGLDVQEPPVKDGGDLSDCLGWPSSSATLSFDSREASFVHGRPQGTLEIPSESVKSKQFSPSGYLSDTEESNMICQTMKCQRYQTPYLSEETTYLEPGKISVNCGHPSRHKADRLKSDFKKLSSTLPSSVCQQPSRKLIVPLSSQQDSGFDSPFVNLD
partner: B1 chain

Variants of: B1
Details: with CEP152, O94986-3

Row | Variant | effect of a mutation on the interaction
1 | K711A | decreasing interaction strength
2 | K685A | disrupting interaction strength

Variants of: B2
Details: with plk4_human PLK4, O00444

Row | Variant | effect of a mutation on the interaction
3 | E21K | decreasing interaction strength
4 | V8A | decreasing interaction strength
